Patent US20120237518A1 (Kyowa Kirin, published 2012)

Key:
[1] = biological target: T1, recombinant human Trop-2/Fc/His fusion protein (manufactured by R&D) (human, UniProt P09758 27-274, limits assumed); test: competition binding ELISA on immobilised Trop-2/Fc/His; cAR47A6.4.2 varied, competed antibody YY-01 fixed at 0.3 µg/ml [d]
T1 construct: Bought reagent; also called Trop-2/Fc/His chimeric protein; recombinant Trop-2
T1 sequence: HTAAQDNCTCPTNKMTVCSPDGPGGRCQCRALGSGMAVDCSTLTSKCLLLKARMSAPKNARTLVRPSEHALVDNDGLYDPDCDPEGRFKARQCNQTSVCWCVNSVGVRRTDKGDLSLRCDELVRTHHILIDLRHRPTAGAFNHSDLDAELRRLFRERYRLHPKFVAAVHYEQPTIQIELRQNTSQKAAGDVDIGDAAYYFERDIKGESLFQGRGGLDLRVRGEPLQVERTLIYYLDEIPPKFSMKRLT
Procedure: (§1) Into a 96-well ELISA plate (manufactured by Greiner), 2 μg/ml of a recombinant human Trop-2/Fc/His chimeric protein (manufactured by R&D) was dispensed at 50 μl/well, and allowed to stand at 4° C. overnight for immobilization. After washing the plate with PBS, BSA-PBS was added thereto at 100 μl/well and allowed to stand at room temperature for 1 hour for blocking the active groups.
(§2) After washing the plate with Tween-PBS, a peroxidase-labeled rabbit anti-human IgG antibody (manufactured by American Qualex) was added at 50 μl/well as the second antibody and allowed to stand at room temperature for 1 hour. After washing the plate with Tween-PBS, the ABTS [2,2-Azino-bis(3-Ethyl benzothiazol-6-Sulfonic Acid)ammonium)] substrate solution [1 mmol/l ABTS, 0.1 mol/l citric acid buffer (pH 4.2), 0.1% H₂O₂] was added at 50 μl/well for color development, and the chromogenic reaction was stopped by adding a 5% SDS (Sodium lauryl sulfate) solution at 50 μl/well. Thereafter, the value of the absorbance of OD415 nm was measured by a plate reader Emax (manufactured by Molecular Devices, LLC.).

[2] = biological target: T2, Mutant B, Trop-2 extracellular region lacking domain I and domain II, fused to FLAG tag and Fc (human); test: Western blot, cAR47A6.4.2 as primary antibody, Mutant B in lane 3, non-reducing and reducing SDS-PAGE [b]
T2 construct: Expressed in HEK293F
T2 sequence (chain, as listed by the source mutant limits assumed): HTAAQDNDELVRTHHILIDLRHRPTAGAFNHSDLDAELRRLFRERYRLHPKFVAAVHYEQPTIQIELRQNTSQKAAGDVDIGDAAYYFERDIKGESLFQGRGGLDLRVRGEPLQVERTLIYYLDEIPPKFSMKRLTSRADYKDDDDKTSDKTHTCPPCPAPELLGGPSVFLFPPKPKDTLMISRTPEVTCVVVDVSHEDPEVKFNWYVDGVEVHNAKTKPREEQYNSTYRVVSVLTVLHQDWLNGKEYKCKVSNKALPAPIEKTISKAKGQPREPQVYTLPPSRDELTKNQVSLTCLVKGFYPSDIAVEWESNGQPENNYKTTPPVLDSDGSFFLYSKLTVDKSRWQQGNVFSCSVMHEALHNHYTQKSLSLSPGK
Procedure: (§3) Each protein of Trop-2/FLAG/Fc, Mutant A, Mutant B, or Mutant C prepared in this Example 2 was electrophoresed under reducing condition (treatment of samples in the presence of 10 mmol/l DTT at 95° C. for 5 minutes) or non-reducing condition (treatment of samples in the absence of DTT at room temperature for 10 minutes) by an SDS-PAGE method. The proteins in the gel were transferred to polyvinylidene difluoride (PVDF) membrane at 200 mA for 1 hour using a semi-dry method.
(§4) After the blocking of the PVDF membrane was carried out using PBS containing 5% BSA at room temperature for 1 hour, the PVDF membrane was soaked in the primary antibody solution which was prepared with TBST [an aqueous solution which was prepared by diluting Tris buffered saline (10× concentration) (pH 7.4) manufactured by Nakarai Tesque Inc.) ten-fold and further adding 0.1% concentration of 0.05% polyoxyethylene (20) sorbitan monolaurate (manufactured by Wako Pure Chemical Industries, Ltd., equivalent to ICI Inc.'s trademark Tween 20)] comprising 0.1% BSA to react for 1 hour at room temperature or overnight at 4° C.
(§5) Using the imaging system LAS4000 mini (manufactured by Fujifilm), the luminescence images were obtained. […]

[3] = biological target: T1, recombinant human Trop-2/Fc/His fusion …; test: competition binding ELISA on immobilised Trop-2/Fc/His; cAR47A6.4.2 varied, competed antibody MOv16 fixed at 0.3 µg/ml [b]
Procedure: as §1, §2

[4] = biological target: T3, Mutant A, Trop-2 extracellular region lacking only domain I, fused to FLAG tag and Fc (human); test: Western blot, cAR47A6.4.2 as primary antibody, Mutant A in lane 2, non-reducing and reducing SDS-PAGE [b]
T3 construct: Expressed in HEK293F
T3 sequence (chain, as listed by the source mutant limits assumed): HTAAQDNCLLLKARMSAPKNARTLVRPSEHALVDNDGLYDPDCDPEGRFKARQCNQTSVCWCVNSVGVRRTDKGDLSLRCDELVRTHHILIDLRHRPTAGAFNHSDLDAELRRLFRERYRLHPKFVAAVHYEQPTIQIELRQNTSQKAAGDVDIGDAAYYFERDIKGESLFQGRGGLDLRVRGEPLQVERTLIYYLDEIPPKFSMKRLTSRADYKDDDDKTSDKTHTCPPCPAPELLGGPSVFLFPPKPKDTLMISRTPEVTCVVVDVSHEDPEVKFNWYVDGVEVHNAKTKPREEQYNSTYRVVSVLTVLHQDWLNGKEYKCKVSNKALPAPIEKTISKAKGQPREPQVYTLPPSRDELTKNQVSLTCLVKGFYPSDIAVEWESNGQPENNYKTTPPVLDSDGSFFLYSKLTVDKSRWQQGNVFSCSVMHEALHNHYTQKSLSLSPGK
Procedure: as §3, §4, §5

[5] = biological target: T4, Trop-2/FLAG/Fc, fusion protein of Trop-2 extracellular region, FLAG tag and Fc (human); test: Western blot, cAR47A6.4.2 as primary antibody, Trop-2/FLAG/Fc in lane 1, non-reducing and reducing SDS-PAGE [b]
T4 construct: Expressed in HEK293F; The encoding DNA carries a secretion signal
Procedure: as §3, §4, §5

IC50 (read off the curve) [1]: ~3 µg/mL
binding result [2]: binds
IC50 (read off the curve) [3]: ~4 µg/mL
binding result [4]: binds
binding result [5]: binds
B1: cAR47A6.4.2, human IgG1 chimeric antibody of anti-Trop-2 mouse monoclonal antibody AR47A6.4.2 (antibody, V domains shown)
VH: QIQLVQSGPELKKPGETVKISCKASGYTFTNYGMNWVKQAPGKGLKWMGWINTKTGEPTYAEEFKGRFAFSLETSASTAYLQINNLKKEDTATYFCGRGGYGSSYWYFDVWGAGTTVTVSS
VL: DIVMTQSHKFMSTSVGDRVSITCKASQDVSIAVAWYQQKPGQSPKVLIYSASYRYTGVPDRFTGSGSGTDFTFTISRVQAEDLAVYYCQQHYITPLTFGAGTKLELK
notes: Variable regions of AR47A6.4.2 with human IgG1 constant region (pKANTEX93), made in CHO/DG44 cells, fucose content 100%
